From publication PMC4686794, “Obesity-related known and candidate SNP markers can significantly change affinity of TATA-binding protein for human gene promoters”

Legend:
Settings in all cases: protein: recombinant; label: 32P on both strands; blunt
[1] = target: T1, TATA-binding protein (TBP) (Homo sapiens, UniProt P20226 1-339); experiment: EMSA (kinetic, kd/ka); 5 mM Mg2+; ka 5.6e3 M-1s-1, kd 13.0e-4 s-1; 20 mM HEPES-KOH pH 7.6, 5 mM MgCl2, 70 mM KCl, 1 mM DTT, 100 ug/mL BSA, 0.01% NP-40, 5% glycerol, 25 C; 0.3 nM active TBP, ODN 10-60 nM
T1 sequence (P20226 whole entry): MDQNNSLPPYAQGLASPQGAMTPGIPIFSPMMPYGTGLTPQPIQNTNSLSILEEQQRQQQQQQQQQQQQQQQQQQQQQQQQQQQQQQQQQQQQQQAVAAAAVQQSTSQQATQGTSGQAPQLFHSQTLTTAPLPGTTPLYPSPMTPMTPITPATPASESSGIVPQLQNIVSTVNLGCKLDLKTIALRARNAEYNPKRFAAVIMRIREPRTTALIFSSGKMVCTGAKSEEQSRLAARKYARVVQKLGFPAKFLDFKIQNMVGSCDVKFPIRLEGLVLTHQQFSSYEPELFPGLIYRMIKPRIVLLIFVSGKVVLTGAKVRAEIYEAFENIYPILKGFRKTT

[2] = target: T1, TATA-binding protein (TBP); experiment: EMSA (kinetic, kd/ka); 5 mM Mg2+; ka 3.5e3 M-1s-1, kd 1.5e-4 s-1; 20 mM HEPES-KOH pH 7.6, 5 mM MgCl2, 70 mM KCl, 1 mM DTT, 100 ug/mL BSA, 0.01% NP-40, 5% glycerol, 25 C; 0.3 nM active TBP, ODN 10-60 nM
[3] = target: T1, TATA-binding protein (TBP); experiment: EMSA (kinetic, kd/ka); 5 mM Mg2+; ka 70e3 M-1s-1, kd 5e-4 s-1; 20 mM HEPES-KOH pH 7.6, 5 mM MgCl2, 70 mM KCl, 1 mM DTT, 100 ug/mL BSA, 0.01% NP-40, 5% glycerol, 25 C; 0.3 nM active TBP, ODN 10-60 nM
[4] = target: T1, TATA-binding protein (TBP); experiment: EMSA (kinetic, kd/ka); 5 mM Mg2+; ka 30e3 M-1s-1, kd 6e-4 s-1; 20 mM HEPES-KOH pH 7.6, 5 mM MgCl2, 70 mM KCl, 1 mM DTT, 100 ug/mL BSA, 0.01% NP-40, 5% glycerol, 25 C; 0.3 nM active TBP, ODN 10-60 nM
[5] = target: T1, TATA-binding protein (TBP); experiment: EMSA (kinetic, kd/ka); 5 mM Mg2+; ka 2.3e3 M-1s-1, kd 1.8e-4 s-1; 20 mM HEPES-KOH pH 7.6, 5 mM MgCl2, 70 mM KCl, 1 mM DTT, 100 ug/mL BSA, 0.01% NP-40, 5% glycerol, 25 C; 0.3 nM active TBP, ODN 10-60 nM

B1: LEP -35g (rs201381696 minor) (dsDNA)
DNA 1: ATCGGGCCGCTGTAAGAGGGGCGGGC
DNA 2: GCCCGCCCCTCTTACAGCGGCCCGAT
- Kd [1]: 232 nM

B2: LEP -38a (rs200487063 minor) (dsDNA)
DNA 1: ATCGGGCCACTATAAGAGGGGCGGGC
DNA 2: GCCCGCCCCTCTTATAGTGGCCCGAT
- Kd [2]: 43 nM

B3: GCG WT (dsDNA)
DNA 1: AGCTGGAGAGTATATAAAAGCAGTGC
DNA 2: GCACTGCTTTTATATACTCTCCAGCT
- Kd [3]: 8 nM

B4: GCG -41g (rs183433761 minor) (dsDNA)
DNA 1: AGCTGGAGAGTGTATAAAAGCAGTGC
DNA 2: GCACTGCTTTTATACACTCTCCAGCT
- Kd [4]: 18 nM

B5: LEP WT (dsDNA)
DNA 1: ATCGGGCCGCTATAAGAGGGGCGGGC
DNA 2: GCCCGCCCCTCTTATAGCGGCCCGAT
- Kd [5]: 78 nM
